Data: publication PMC9935906, “Network of hotspot interactions cluster tau amyloid folds” (Nature Communications, 2023)

B1: 306VQIVYK311 peptide (peptide)
peptide: Ac-VQIVYK-NH2
notes: also called WT; source: synthetic peptide, bought: GenScript (≥95% purity)
B2: 275VQIINK280 peptide (peptide)
peptide: Ac-VQIINK-NH2
notes: source: synthetic peptide, bought: GenScript (≥95% purity)
B3: VAIVYK peptide (peptide)
peptide: VAIVYK
notes: Acetyl and amide caps and the supplier (GenScript) are stated only for the ZipperDB-predicted hexapeptides; likely the same here; also called VQIVYK alanine mutant at position two; source: peptide
B4: VQIVYA peptide (peptide)
peptide: VQIVYA
notes: Acetyl and amide caps and the supplier (GenScript) are stated only for the ZipperDB-predicted hexapeptides; likely the same here; also called VQIVYK alanine mutant at position six; source: peptide
B5: VQIVAK peptide (peptide)
peptide: VQIVAK
notes: Acetyl and amide caps and the supplier (GenScript) are stated only for the ZipperDB-predicted hexapeptides; likely the same here; also called VQIVYK alanine mutant at position five; source: peptide
B6: AQIVYK peptide (peptide)
peptide: AQIVYK
notes: Acetyl and amide caps and the supplier (GenScript) are stated only for the ZipperDB-predicted hexapeptides; likely the same here; also called VQIVYK alanine mutant at position one; source: peptide

Target: the molecule itself
Test: ThT fluorescence aggregation assay + TEM; peptide alone, 1 mM in 1X PBS, neutral pH, one week at 37 °C with 900 RPM orbital shaking; endpoint ThT (15 µM) and negative-stain TEM; self-assembly into fibrils

Binding result, binds:
B1
B2

Target: the molecule itself
Test: ThT fluorescence aggregation assay + TEM; peptide alone, 200 µM in 1X PBS + 25 µM ThT, 37 °C, one week, endpoint ThT; fibrils checked by negative-stain TEM; self-assembly into fibrils

Binding result, binds:
B3
B4
B5
B6
